By Kd is commonly meant the equilibrium constant for the complex coming apart. Low values mean a tighter complex, high ones a looser complex.

The values that follow come from patent US20230391863A1 (published 2023).

The target of assay [1] is A109 (SEQ ID NOs: 39 & 17) (Homo sapiens (Human), UniProt P0DOX7 1-214). The assay is described as follows: BLI (Octet RED96), affinity-purified antagonist captured on biosensor, ligand in solution. The protocol:
(§1) In this example, the human ligand binding activities of several bifunctional antagonist molecules were measured by biolayer interferometry (BLI) using Octet RED96 (FortéBIO, Pall Corporation, USA). Binding analysis was performed by capturing the polypeptide bifunctional antagonists to biosensors. To measure the rate of association and dissociation, the bifunctional antagonists-captured biosensors were dipped in wells containing different concentrations of ligands (such as TNF-α, Activin A, Activin B, Activin AB, myostatin, and GDF-11) diluted in 1× kinetic buffer for 10 min followed by 10-20 min in 1× kinetic buffer. The bifunctional polypeptide antagonists-captured sensors were also submerged in wells containing 1× kinetic buffer to allow single reference subtraction in order to compensate for natural dissociation of the captured bifunctional antagonists. The binding sensorgrams were collected using the 8-channel detection mode on the biosensor. Data were acquired and analyzed using the FortéBIO data acquisition software v11.1 (FortéBIO, Pall Corporation, USA).
In general terms: BLI is a label-free optical method that tracks binding on a fibre tip over time.

In assay [2] the target is A110 (SEQ ID NOs: 41 & 17) (Homo sapiens (Human), UniProt P0DOX7 1-214). The description is as above. The protocol: as §1

B1: human Activin A (ligand)
chain: GLECDGKVNICCKKQFFVSFKDIGWNDWIIAPSGYHANYCEGECPSHIAGTSGSSLSFHSTVINHYRMRGHSPFANLKSCCVPTKLRPMSMLYYDDGQNIIKKDIQNMIVEECGCS
modifications: Activin A is a disulfide-linked homodimer of two identical inhibin beta A chains. The chain is given once.
For the molecule B1, the Kd in assay [1] was roughly 0.52 nM; in assay [2], roughly 0.16 nM.
